Laboratory results from the RNAGym collection of RNA variant scans (doi:10.1093/molbev/msab373).

B1: Azoarcus group I ribozyme (parent)
chain: GUGCCUUGCGCCGGGAAACCACGCAAGGGAUGGUGUCAAAUUCGGCGAAACCUAAGCGCCCGCCCGGGCGUAUGGCAACGCCGAGCCAAGCUUCGGCGCCUGCGCCGAUGAAGGUGUAGAGACUAGACGGCACCCACCUAAGGCAAACGCUAUGGUGAAGGCAUAGUCCAGGGAGUGGCGAAAGUCACACAAACCGG

Variants of: B1
Test: reverse-splicing fitness (ratio to wild type); higher = more active; in vitro selection; Mg2+ level not given
Procedure, shortened: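 An in vitro group I ribozyme library with randomized positions was T7-transcribed and gel-purified. In triplicate, 10 pmol RNA in EPPS pH 7.5 was reacted with 50 pmoles of a 30-nt RNA substrate for 1 h at 37 °C across several added MgCl2 levels (1–48 mM), then stopped with EDTA. Products were reverse transcribed from a substrate-complementary primer, PCR-amplified and sequenced (HiSeq 4000). Fitness is a variant's read proportion after selection over that before, normalised to wild type.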

First: GUGCCUUGCGCCGGGAAACCACGCAAGGGAUGGUGUCAAAUUCGGCGAAACCUAAGCGCCCGCCCGGGCGUAUGGCAACGCAGAGCCAAGCUUCGGCGCCUGCGCCGAUGAAGGUGUAGUGACUAGACGGCACCCACCUAAGGCCAACGGUAUGGUGAAGGCAUAGUCUAGGGAGUGGCGAAAGUCACACAAACCGG [C82A A120U A145C C150G C169U]
Second: GUGCCUUGCGCCGGGAAACCACGCAAGGGAUGGUGUCAAAUUCGGCGAAACCUAAGCGCCCGCCCGGGCGUAUGGCAACGCAGAGCCAAGCUUCGGCGCCUGCGCCGAUGAAGGUGUAGUGACUAGACGGCACCCACCUAAGGCCAACGGUAUGGUGAAGGCAUAGUCUAGGGAGAGGCGAAAGUCACACAAACCGG [C82A A120U A145C C150G C169U U176A]
The reverse-splicing fitness of the first is higher: 0.00298 for the first, 0.00283 for the second.

Compared with GUGCCUUGCGCCGGGAAACCACGCAAGGGAUGGUGUCAAAUUCGGCGAAACCUAAGCGCCCGCCCGGGCGUAUGGCAACGCAGAGCCAAGCUUCGGCGCCUGCGCCGAUGAAGGUGUAGUGACUAGACGGCACCCACCUAAGGCCAACGGUAUGGUGAAGGCAUAGUCUAGGGAGCGGCGAAAGUCACACAAACCGG [C82A A120U A145C C150G C169U U176C], GUGCCUUGCGCCGGGAAACCACGCAAGGGAUGGUGUCAAAUUCGGCGAAACCUAAGCGCCCGCCCGGGCGUAUGGCAACGCAGAGCCAAGCUUCGGCGCCUGCGCCGAUGAAGGUGUAGUGACUAGACGGCACCCACCUAAGGCCAACGGUAUGGUGAAGGCAUAGUCUAGGGAGGGGCGAAAGUCACACAAACCGG [C82A A120U A145C C150G C169U U176G] is lower in reverse-splicing fitness: 0.00254 for the first, 0.00175 for the second.

Going from GUGCCUUGCGCCGGGAAACCACGCAAGGGAUGGUGUCAAAUUCGGCGAAACCUAAGCGCCCGCCCGGGCGUAUGGCAACGCAGAGCCAAGCUUCGGCGCCUGCGCCGAUGAAGGUGUAGUGACUAGACGGCACCCACCUAAGGCCAACGGUAUGGUGAAGGCAUAGUCCAGGGAGAGGCGAAAGUCACACAAACCGG [C82A A120U A145C C150G U176A] to GUGCCUUGCGCCGGGAAACCACGCAAGGGAUGGUGUCAAAUUCGGCGAAACCUAAGCGCCCGCCCGGGCGUAUGGCAACGCAGAGCCAAGCUUCGGCGCCUGCGCCGAUGAAGGUGUAGUGACUAGACGGCACCCACCUAAGGCCAACGGUAUGGUGAAGGCAUAGUCCAGGGAGCGGCGAAAGUCACACAAACCGG [C82A A120U A145C C150G U176C], the reverse-splicing fitness rises from 0.00523 to 0.00832.

Going from GUGCCUUGCGCCGGGAAACCACGCAAGGGAUGGUGUCAAAUUCGGCGAAACCUAAGCGCCCGCCCGGGCGUAUGGCAACGCAGAGCCAAGCUUCGGCGCCUGCGCCGAUGAAGGUGUAGUGACUAGACGGCACCCACCUAAGGCCAACGGUAUGGUGAAGGCAUAGUCCAGGGAGGGGCGAAAGUCACACAAACCGG [C82A A120U A145C C150G U176G] to GUGCCUUGCGCCGGGAAACCACGCAAGGGAUGGUGUCAAAUUCGGCGAAACCUAAGCGCCCGCCCGGGCGUAUGGCAACGCAGAGCCAAGCUUCGGCGCCUGCGCCGAUGAAGGUGUAGUGACUAGACGGCACCCACCUAAGGCCAACGUUAUGGUGAAGGCAUAGUCCAGGGAGUGGCGAAAGUCACACAAACCGG [C82A A120U A145C C150U], the reverse-splicing fitness rises from 0.00275 to 0.0294.

Compared with GUGCCUUGCGCCGGGAAACCACGCAAGGGAUGGUGUCAAAUUCGGCGAAACCUAAGCGCCCGCCCGGGCGUAUGGCAACGCAGAGCCAAGCUUCGGCGCCUGCGCCGAUGAAGGUGUAGUGACUAGACGGCACCCACCUAAGGCCAACGUUAUGGUGAAGGCAUAGUCAAGGGAGUGGCGAAAGUCACACAAACCGG [C82A A120U A145C C150U C169A], GUGCCUUGCGCCGGGAAACCACGCAAGGGAUGGUGUCAAAUUCGGCGAAACCUAAGCGCCCGCCCGGGCGUAUGGCAACGCAGAGCCAAGCUUCGGCGCCUGCGCCGAUGAAGGUGUAGUGACUAGACGGCACCCACCUAAGGCCAACGUUAUGGUGAAGGCAUAGUCAAGGGAGAGGCGAAAGUCACACAAACCGG [C82A A120U A145C C150U C169A U176A] is lower in reverse-splicing fitness: 0.00197 for the first, 0.00195 for the second.

Going from GUGCCUUGCGCCGGGAAACCACGCAAGGGAUGGUGUCAAAUUCGGCGAAACCUAAGCGCCCGCCCGGGCGUAUGGCAACGCAGAGCCAAGCUUCGGCGCCUGCGCCGAUGAAGGUGUAGUGACUAGACGGCACCCACCUAAGGCCAACGUUAUGGUGAAGGCAUAGUCAAGGGAGCGGCGAAAGUCACACAAACCGG [C82A A120U A145C C150U C169A U176C] to GUGCCUUGCGCCGGGAAACCACGCAAGGGAUGGUGUCAAAUUCGGCGAAACCUAAGCGCCCGCCCGGGCGUAUGGCAACGCAGAGCCAAGCUUCGGCGCCUGCGCCGAUGAAGGUGUAGUGACUAGACGGCACCCACCUAAGGCCAACGUUAUGGUGAAGGCAUAGUCAAGGGAGGGGCGAAAGUCACACAAACCGG [C82A A120U A145C C150U C169A U176G], the reverse-splicing fitness falls from 0.00251 to 0.002.

Compared with GUGCCUUGCGCCGGGAAACCACGCAAGGGAUGGUGUCAAAUUCGGCGAAACCUAAGCGCCCGCCCGGGCGUAUGGCAACGCAGAGCCAAGCUUCGGCGCCUGCGCCGAUGAAGGUGUAGUGACUAGACGGCACCCACCUAAGGCCAACGUUAUGGUGAAGGCAUAGUCGAGGGAGUGGCGAAAGUCACACAAACCGG [C82A A120U A145C C150U C169G], GUGCCUUGCGCCGGGAAACCACGCAAGGGAUGGUGUCAAAUUCGGCGAAACCUAAGCGCCCGCCCGGGCGUAUGGCAACGCAGAGCCAAGCUUCGGCGCCUGCGCCGAUGAAGGUGUAGUGACUAGACGGCACCCACCUAAGGCCAACGUUAUGGUGAAGGCAUAGUCGAGGGAGAGGCGAAAGUCACACAAACCGG [C82A A120U A145C C150U C169G U176A] is lower in reverse-splicing fitness: 0.00276 for the first, 0.00237 for the second.

With GUGCCUUGCGCCGGGAAACCACGCAAGGGAUGGUGUCAAAUUCGGCGAAACCUAAGCGCCCGCCCGGGCGUAUGGCAACGCAGAGCCAAGCUUCGGCGCCUGCGCCGAUGAAGGUGUAGUGACUAGACGGCACCCACCUAAGGCCAACGUUAUGGUGAAGGCAUAGUCGAGGGAGCGGCGAAAGUCACACAAACCGG [C82A A120U A145C C150U C169G U176C] the reverse-splicing fitness was 0.00201.
